Measured values: the supplement of paper PMC9233669
Variants at the floor of the assay were thinned out.

Key:
[1] = tested on: biotinyl-Phe-oxazolone; test: self-aminoacylation, catalytic enhancement (BFO) (fold over background); higher = more active; k-Seq, kA / k0A0; sequences stand for … in GGGAAUGGAUCCACAUCUACGAAUUC…UUCACUGCAGACUUGACGAAGCUG
How it was run: (§1)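 Mutagenized RNA pools with a 21-nt variable region (0.43 μM) were reacted with each biotinyl-aminoacyl-oxazolone at 2–1250 μM for 90 minutes at room temperature, in 50 μL HEPES/NaCl/KCl/MgCl2/CaCl2 buffer containing 5% acetonitrile at pH 6.9–7.0. RNA captured on streptavidin was quantified by triplicate qPCR and by Illumina sequencing. The fraction reacted for each sequence was fit to a pseudo-first-order model with bootstrapping, and catalytic enhancement is the median kA divided by the uncatalyzed rate, taken as the low-activity peak of a bimodal Gaussian fit.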

[2] = tested on: biotinyl-Ile-oxazolone; test: self-aminoacylation, catalytic enhancement (BIO) (fold over background); higher = more active; k-Seq, kA / k0A0; sequences stand for … in GGGAAUGGAUCCACAUCUACGAAUUC…UUCACUGCAGACUUGACGAAGCUG
How it was run: as §1

[3] = tested on: biotinyl-Met-oxazolone; test: self-aminoacylation, catalytic enhancement (BMO) (fold over background); higher = more active; k-Seq, kA / k0A0; sequences stand for … in GGGAAUGGAUCCACAUCUACGAAUUC…UUCACUGCAGACUUGACGAAGCUG
How it was run: as §1

[4] = tested on: biotinyl-Val-oxazolone; test: self-aminoacylation, catalytic enhancement (BVO) (fold over background); higher = more active; k-Seq, kA / k0A0; sequences stand for … in GGGAAUGGAUCCACAUCUACGAAUUC…UUCACUGCAGACUUGACGAAGCUG
How it was run: as §1

[5] = tested on: biotinyl-Leu-oxazolone; test: self-aminoacylation, catalytic enhancement (BLO) (fold over background); higher = more active; k-Seq, kA / k0A0; sequences stand for … in GGGAAUGGAUCCACAUCUACGAAUUC…UUCACUGCAGACUUGACGAAGCUG
How it was run: as §1

[6] = tested on: biotinyl-Trp-oxazolone; test: self-aminoacylation, catalytic enhancement (BWO) (fold over background); higher = more active; k-Seq, kA / k0A0; sequences stand for … in GGGAAUGGAUCCACAUCUACGAAUUC…UUCACUGCAGACUUGACGAAGCUG
How it was run: as §1

Sequence | self-aminoacylation [1] | self-aminoacylation [2] | self-aminoacylation [3] | self-aminoacylation [4] | self-aminoacylation [5] | self-aminoacylation [6]
AUUACCCUGGUCAACGCGUGA [Fam2.1 aminoacylation ribozyme variant] | 72.1 | 4.65 | 10.8 | 6.15 | 12.5 | 12.3
AUUACCCUGGUCAACGGGUGA [Fam2.1 aminoacylation ribozyme variant] | 46.6 | 4.83 | 9.43 | 4.61 | 9.68 | 10.8
AUUACCCUGGUCAACUAGUGA [Fam2.1 aminoacylation ribozyme variant] | 24.9 | 3.93 | 8.64 | 4.39 | 6.83 | 9.81
AUUACCCUGGUCACCGAGUCA [Fam2.1 aminoacylation ribozyme variant] | 0.799 | 1.43 | 1.45 | 1.49 | 1.75 | 1.84
AUUACCCUGGUCACCGAGUGC [Fam2.1 aminoacylation ribozyme variant] | 3.95 | 1.76 | 1.43 | 1.45 | 2.61 | 2.11
AUUACCCUGGUCACCGGGUGA [Fam2.1 aminoacylation ribozyme variant] | 87.4 | 6.24 | 14.5 | 7.91 | 14.8 | 14.1
AUUACCCUGGUCACGGAGUGA [Fam2.1 aminoacylation ribozyme variant] | 37.5 | 3.43 | 7.34 | 3.92 | 7.68 | 8.54
AUUACCCUGGUCAGAGAGUGA [Fam2.1 aminoacylation ribozyme variant] | 19.9 | 3.18 | 7.04 | 3.41 | 6.71 | 8.25
AUUACCCUGGUCAGCGACUGA [Fam2.1 aminoacylation ribozyme variant] | 1.03 | 1.12 | 1.3 | 1.31 | 1.05 | 1.94
AUUACCCUGGUCAGCGCGUGA [Fam2.1 aminoacylation ribozyme variant] | 35.3 | 3.45 | 5.84 | 3.95 | 6.5 | 6.87
AUUACCCUGGUCAUAGAGCGA [Fam2.1 aminoacylation ribozyme variant] | 1.37 | 1.05 | 1.03 | 1.04 | 1.04 | 1.18
AUUACCCUGGUCAUAGAGUCA [Fam2.1 aminoacylation ribozyme variant] | 0.531 | 0.884 | 0.82 | 0.974 | 0.962 | 0.529
AUUACCCUGGUCAUAGAGUGG [Fam2.1 aminoacylation ribozyme variant] | 3.37 | 1.37 | 2.18 | 1.43 | 2.31 | 1.18
AUUACCCUGGUCAUAUAGUGA [Fam2.1 aminoacylation ribozyme variant] | 69.1 | 5.04 | 11.2 | 5.51 | 10.7 | 12.4
AUUACCCUGGUCAUCCAAUGA [Fam2.1 aminoacylation ribozyme variant] | 1.66 | 0.938 | 1.2 | 0.942 | 1.47 | 0.429
AUUACCCUGGUCAUCCAGGGA [Fam2.1 aminoacylation ribozyme variant] | 7.32 | 1.91 | 2.82 | 1.67 | 1.84 | 2.26
AUUACCCUGGUCAUCGAGAUA [Fam2.1 aminoacylation ribozyme variant] | 7.71 | 1.78 | 3.42 | 2.2 | 3.19 | 3.19
AUUACCCUGGUCAUCGAGUAC [Fam2.1 aminoacylation ribozyme variant] | 17.2 | 2.32 | 6.05 | 3.03 | 5.94 | 4.57
AUUACCCUGGUCAUCGAGUAU [Fam2.1 aminoacylation ribozyme variant] | 97.7 | 8 | 26.9 | 9.24 | 23.6 | 24.4
AUUACCCUGGUCAUCGAGUGA [Fam2.1 aminoacylation ribozyme variant] | 657 | 34.6 | 91.3 | 37.9 | 86.9 | 99.1
AUUACCCUGGUCAUCGAGUGC [Fam2.1 aminoacylation ribozyme variant] | 24.9 | 3.92 | 11.4 | 4.71 | 10.9 | 8.98
AUUACCCUGGUCAUCGAGUGG [Fam2.1 aminoacylation ribozyme variant] | 361 | 16.3 | 56.9 | 18.5 | 55.4 | 52.1
AUUACCCUGGUCAUCGAGUUC [Fam2.1 aminoacylation ribozyme variant] | 4.38 | 1.02 | 1.88 | 1.53 | 2.17 | 1.54
AUUACCCUGGUCAUCGAGUUU [Fam2.1 aminoacylation ribozyme variant] | 14.8 | 3.52 | 7.8 | 4.61 | 7.87 | 6.31
AUUACCCUGGUCAUCGAUAGA [Fam2.1 aminoacylation ribozyme variant] | 0.5 | 0.721 | 0.638 | 0.77 | 0.537 | 1.23
AUUACCCUGGUCAUCGCGAGA [Fam2.1 aminoacylation ribozyme variant] | 1.58 | 2.17 | 1.68 | 2.21 | 1.44 | 2.72

Sequence | self-aminoacylation [1] | self-aminoacylation [2] | self-aminoacylation [3] | self-aminoacylation [4] | self-aminoacylation [5] | self-aminoacylation [6]
AUUACCCUGGUCAUCGCGCGA [Fam2.1 aminoacylation ribozyme variant] | 36.7 | 5.07 | 4.45 | 5.24 | 6.23 | 3.18
AUUACCCUGGUCAUCGCGUGC [Fam2.1 aminoacylation ribozyme variant] | 16.8 | 2.81 | 3.35 | 2.75 | 4.64 | 4.47
AUUACCCUGGUCAUCGGCUGA [Fam2.1 aminoacylation ribozyme variant] | 4.87 | 2.74 | 1.54 | 3.04 | 2.77 | 2.77
AUUACCCUGGUCAUCGGGUAA [Fam2.1 aminoacylation ribozyme variant] | 208 | 11.4 | 35.6 | 16 | 38.2 | 42.4
AUUACCCUGGUCAUCGGGUGC [Fam2.1 aminoacylation ribozyme variant] | 211 | 13.4 | 39.2 | 18.9 | 52.5 | 48.7
AUUACCCUGGUCAUCGUCUGA [Fam2.1 aminoacylation ribozyme variant] | 0.374 | 0.88 | 0.842 | 0.817 | 0.907 | 0.531
AUUACCCUGGUCAUCUAGUCA [Fam2.1 aminoacylation ribozyme variant] | 0.712 | 0.753 | 0.578 | 0.827 | 0.616 | 0.455
AUUACCCUGGUCAUCUAGUGA [Fam2.1 aminoacylation ribozyme variant] | 42.9 | 4.51 | 9.61 | 4.83 | 9.15 | 11.3
AUUACCCUGGUCAUCUUGUGA [Fam2.1 aminoacylation ribozyme variant] | 22.6 | 2.27 | 4.75 | 2.33 | 4.41 | 4.57
AUUACCCUGGUCAUGAAGUGA [Fam2.1 aminoacylation ribozyme variant] | 44.8 | 4.14 | 8.83 | 4.08 | 7.74 | 10.1
AUUACCCUGGUCAUGGAAUGA [Fam2.1 aminoacylation ribozyme variant] | 1.95 | 1.19 | 1.53 | 1.21 | 1.17 | 2.08
AUUACCCUGGUCAUGGAGAGA [Fam2.1 aminoacylation ribozyme variant] | 1.19 | 0.877 | 0.941 | 1.18 | 1.2 | 1.77
AUUACCCUGGUCAUGGUGUGA [Fam2.1 aminoacylation ribozyme variant] | 4.16 | 1.27 | 1.64 | 1.18 | 1.84 | 2.24
AUUACCCUGGUCAUUAAGUGA [Fam2.1 aminoacylation ribozyme variant] | 55.5 | 4.88 | 11.2 | 5.31 | 10.3 | 13.4
AUUACCCUGGUCAUUGAGCGA [Fam2.1 aminoacylation ribozyme variant] | 4.43 | 1.45 | 1.16 | 1.41 | 1.44 | 1.66
AUUACCCUGGUCCUCAAGUGA [Fam2.1 aminoacylation ribozyme variant] | 7.45 | 1.64 | 2.16 | 2.02 | 2.29 | 3.02
AUUACCCUGGUCCUCGAGUGC [Fam2.1 aminoacylation ribozyme variant] | 2.51 | 0.969 | 0.658 | 1.06 | 1.07 | 1.31
AUUACCCUGGUCGACGAGUGA [Fam2.1 aminoacylation ribozyme variant] | 26.4 | 2.86 | 5.53 | 3.33 | 5.32 | 6.05
AUUACCCUGGUCGGCGAGUGA [Fam2.1 aminoacylation ribozyme variant] | 53.6 | 5.39 | 7.37 | 5.03 | 9.02 | 8.06
AUUACCCUGGUCGUAGAGUGA [Fam2.1 aminoacylation ribozyme variant] | 3.08 | 1.17 | 1.28 | 1.09 | 1.84 | 2.26
AUUACCCUGGUCGUCGAGUAA [Fam2.1 aminoacylation ribozyme variant] | 1.08 | 1.27 | 1.3 | 1.12 | 1.68 | 0.721
AUUACCCUGGUCGUCGAGUCA [Fam2.1 aminoacylation ribozyme variant] | 0.524 | 1.05 | 0.904 | 1.05 | 0.956 | 0.444
AUUACCCUGGUCUCCGAGUGA [Fam2.1 aminoacylation ribozyme variant] | 64.4 | 3.95 | 7.41 | 4.33 | 8.91 | 9.46
AUUACCCUGGUCUUCAAGUGA [Fam2.1 aminoacylation ribozyme variant] | 23.8 | 2.76 | 4.91 | 2.67 | 4.28 | 5.67
AUUACCCUGGUCUUCCAGUGA [Fam2.1 aminoacylation ribozyme variant] | 31.7 | 3.79 | 5.48 | 3.51 | 5.94 | 6.46
